Results: patent EP4793288A1

Target: Recombinant HLA-G antigen (human) (UniProt P17693)
Assay: monoclonal phage ELISA, Fab on phage, anti-M13 HRP (selection threshold)

Binder | absorbance (OD450)
T22A4 (Fab clone displayed on phage) (Fab, V domains shown) VH: EVQLVESGGNWVQPGGSLRLSCAASGFSFRSYAMSWVRQAPGKGLEWVSSISGSGNSELYAGSVKGRFTISRDNSKNTLSLQLHSLRAEDTAMYYCAKFSAAVGFLPDYFDSWGQGTLVTVSS VL: ELTLTQSPSSLSASVGDRVTITCQASHDISKYLNWYQQKSGKAPKLLIYDASNLETGVPSRFSGSGSGTDFTLTISSLQPEDFATYYCQQSYRTPLTFGGGTKLEIK | > 0.4
T23D5 (Fab clone displayed on phage) (Fab, V domains shown) VH: QVQLQESGPGLVKPSETLSLTCTVSGGSIDRSSHYWGWIRQPPGKGLEWLGSIYYSGITYYNPSLKSRVTISVDTSRNQFSLTLSSVTAADTAVYYCARHGSYDSWAGRYKWDRFDPWGQGTPVTVSS VL: ELQMTQSPSSLSASVGDRVTITCQASHDISKYLNWYQQKSGKAPKLLIYDASNLETGVPSRFSGSGSGTDFTLTISSLQPEDFATYYCQQSYSTPLTFGGGTKVEIK | > 0.4
